Results: publication PMC7078210
Positions count from the first letter of the chain named. Values belong to the molecule of their own block, whether it stands above or below them.

Columns and labels:
[1] = target: NtMOC1 (N108-S275, I112V/Q162K/E235Q/E239Q) (Nicotiana tabacum); assay: crystal structure; HJ-free (apo) MOC1, 10 mg/ml with 1 mM MgCl2, sitting-drop vapor diffusion at 18 °C
[2] = target: NtMOC1 (N108-S275, I112V/Q162K/E235Q/E239Q) (Nicotiana tabacum); assay: crystal structure; MOC1 with 1 mM MgCl2 mixed with Holliday junction DNA (9-bp arms) at a molar ratio of 1:1.2, co-crystallised
NtMOC1 Y180A = target: T1, NtMOC1 Y180A (Nicotiana tabacum, UniProt A0A1S4BMC2 108-275, Y180A); assay: EMSA; 5 mM EDTA; little effect; EMSA: 50 mM Tris-HCl pH 8.0, 1 mM DTT, 5 mM EDTA, 200 ng/ml heparin (so in the source), 10% glycerol, 25 C, 30 min; HJ 250 nM, protein 0-1000 nM; 6% native PAGE, no MgCl2; conditions: protein: recombinant; tags: 6xHis N-term, removed (DrICE); chain copies: 2; label: none (GelRed stain); four-way junction of 4 strands, 28 nt each, 2-bp homologous core
T1 sequence: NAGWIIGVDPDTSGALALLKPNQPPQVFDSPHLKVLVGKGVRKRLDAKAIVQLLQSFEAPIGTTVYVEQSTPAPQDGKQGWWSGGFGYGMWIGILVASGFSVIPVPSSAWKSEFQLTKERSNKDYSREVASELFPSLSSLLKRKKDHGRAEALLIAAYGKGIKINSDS

NtMOC1 E258A = target: T2, NtMOC1 E258A (Nicotiana tabacum, UniProt A0A1S4BMC2 108-275, E258A); assay: EMSA; 5 mM EDTA; EMSA: 50 mM Tris-HCl pH 8.0, 1 mM DTT, 5 mM EDTA, 200 ng/ml heparin (so in the source), 10% glycerol, 25 C, 30 min; HJ 250 nM, protein 0-1000 nM; 6% native PAGE, no MgCl2; conditions: protein: recombinant; tags: 6xHis N-term, removed (DrICE); chain copies: 2; label: none (GelRed stain); four-way junction of 4 strands, 28 nt each, 2-bp homologous core
T2 sequence: T1 sequence with A73Y, E151A

NtMOC1 E175A = target: T3, NtMOC1 E175A (Nicotiana tabacum, UniProt A0A1S4BMC2 108-275, E175A); assay: as above; conditions: protein: recombinant; tags: 6xHis N-term, removed (DrICE); chain copies: 2; label: none (GelRed stain); four-way junction of 4 strands, 28 nt each, 2-bp homologous core
T3 sequence: T1 sequence with E68A, A73Y

NtMOC1 D118A = target: T4, NtMOC1 D118A (Nicotiana tabacum, UniProt A0A1S4BMC2 108-275, D118A); assay: as above; conditions: protein: recombinant; tags: 6xHis N-term, removed (DrICE); chain copies: 2; label: none (GelRed stain); four-way junction of 4 strands, 28 nt each, 2-bp homologous core
T4 sequence: T1 sequence with D11A, A73Y

NtMOC1 D116A = target: T5, NtMOC1 D116A (Nicotiana tabacum, UniProt A0A1S4BMC2 108-275, D116A); assay: as above; conditions: protein: recombinant; tags: 6xHis N-term, removed (DrICE); chain copies: 2; label: none (GelRed stain); four-way junction of 4 strands, 28 nt each, 2-bp homologous core
T5 sequence: T1 sequence with D9A, A73Y

NtMOC1 D253A = target: T6, NtMOC1 D253A (Nicotiana tabacum, UniProt A0A1S4BMC2 108-275, D253A); assay: as above; conditions: protein: recombinant; tags: 6xHis N-term, removed (DrICE); chain copies: 2; label: none (GelRed stain); four-way junction of 4 strands, 28 nt each, 2-bp homologous core
T6 sequence: T1 sequence with A73Y, D146A

stoichiometry N [1]: 2
stoichiometry N [2]: 2
Molecule: NtMOC1 (N108-S275, I112V/Q162K/E235Q/E239Q) (domain or fragment)

B1: X2 (CCGG) HJ (structured_DNA)
DNA 1: GGGCAAAGATGTCCCTCTGTTGTAATCG
DNA 2: CCAGTGCCTTGCTGGGACATCTTTGCCC
DNA 3: TAGACAGCTCCATCCAGCAAGGCACTGG
DNA 4: CGATTACAACAGAGGATGGAGCTGTCTA
binding result (NtMOC1 Y180A): binds
binding result (NtMOC1 E258A): binds
binding result (NtMOC1 E175A): binds
binding result (NtMOC1 D118A): binds
binding result (NtMOC1 D116A): binds
binding result (NtMOC1 D253A): binds
